Experimental data: paper PMC8829827, “Dynamics of Cations around DNA and Protein as Revealed by 23Na Diffusion NMR Spectroscopy”

Molecular target: Antp homeodomain (C39S) (fruit fly, UniProt P02833 297-356, C335S)
Assay: 23Na diffusion NMR (Na+ release on complex formation); 1.10 mM protein, 1.52 mM DNA; 14.7 +/- 1.7 Na+ released per complex; sodium succinate buffer (20 mM Na+, 11.3 mM succinate), pH 5.8, 25 C
Details: protein: recombinant; blunt

Chain of Antp homeodomain (C39S) (P02833 297-356 C335S): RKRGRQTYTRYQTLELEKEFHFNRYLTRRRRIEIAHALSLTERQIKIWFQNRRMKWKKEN

B1: 15-bp DNA duplex with Antp recognition sequence (dsDNA)
DNA 1: AGAAAGCCATTAGAG
DNA 2: CTCTAATGGCTTTCT
- binding result: binds
